± gives the uncertainty stated by the source.

The data set can be described thus: amyloid nucleation score (Sup35N fusion, yeast selection) (log enrichment); library NNK1; higher = more nucleation; inactive = no reads after selection. Put shortly: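 After 24 hours of induction with 100 μM copper sulfate, psi-negative yeast expressing peptides of 20 random codons fused to Sup35N were grown for 7 days at 30°C on medium lacking adenine and uracil. Input and output plasmid inserts were sequenced with Illumina, and sequences with under 100 input reads were discarded. Scores for nucleation are the DiMSum log enrichment of output over input reads, centred on the mode score of non-aggregating sequences.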
With MVRNKQKLLKGQ, the amyloid nucleation score is 0.375 ± 0.49.
For MVRYLGYYLPNWRSFHWHRL the value was 0.951 ± 0.44; for MVSHKDQRIGPLLASVAHVR, -1.69 ± 1.3; for MVSIWINFT, 6.38 ± 0.08.
For the substance MWGMF, the amyloid nucleation score is -0.132 ± 0.35.
For MWHGSVTMGGIRGTRDSVHQ, the amyloid nucleation score came to 0.792 ± 0.53.
For MWSYNLYNLVVTS the value was 1.1 ± 0.28.
As for MWTRHCN, the amyloid nucleation score worked out at 0.483 ± 0.55.
For the substance MWVCSYA, the amyloid nucleation score entry was “inactive”.
For MWVLRPCCHFAVCRGIKVSR the value was -0.046 ± 0.53; for MYGGKCSNGPCMYSVGIGTW, 1.39 ± 0.34.
Turning to MYPRSCIHVMCFTVVKASVG, the amyloid nucleation score is -1.26 ± 0.74.
For MYVPQSINSYTQWEPKHIRW, the amyloid nucleation score is 1.64 ± 0.43.
For MYVSDCCSCICMVVDTRSIF the value was 0.292 ± 0.39; for NACDCQPMFVMQWYRRVEPR, -0.167 ± 0.53.
For NACIQVTGRCCIACVVEFWY the value was 1.32 ± 0.38.
The substance NACRCVYSGRVSAYDVRVRN displayed an amyloid nucleation score of 0 ± 0.6.
On to NADMFRTVLMMMFPAFRLIR, for which the amyloid nucleation score was found to be 0.172 ± 0.22.
For NARFWVRCIDVHFGVKAGDG the value was “inactive”.
For NAVINQ the value was 0.388 ± 0.73; for NCCGSLETSSVSVVYLMWGW, 5.917 ± 0.05; for NCDKMVNMLPLRFSDIALSM, -0.566 ± 0.5.
Substance NCGVYIVYQKRLQAVGYCAN displayed an amyloid nucleation score of -0.312 ± 0.3.
NCKNVYCFKYASGIGERAFY came in with an amyloid nucleation score of 0.091 ± 0.42.
Take NCPFEW: the amyloid nucleation score is -0.116 ± 0.55.
The substance NCSGCIWVRMCLNHFGVCTD came in with an amyloid nucleation score of 2.38 ± 0.16.
As to NCSGSRLFLMSLSL, the amyloid nucleation score turned out to be 6.52 ± 0.066.
For NCSLILTTKRNRWYLQRLRF the value was 0.467 ± 0.33; for NCTARMKVGFAGFSFTLWIA, 0.533 ± 0.56.
On to NCVQARFDERCVRGLGCKFY, for which the amyloid nucleation score was -0.724 ± 0.64.
As for NCVRSCISMQVYCTPAVVMY, the amyloid nucleation score is 5.483 ± 0.053.
The substance NDLYVGLDTYYIRHNLTRWF returned an amyloid nucleation score of 0.447 ± 0.2.
The substance NDSDARYHVFRK displayed an amyloid nucleation score of -0.256 ± 1.2.
NDTQLRISACYALRDNGEWV: the amyloid nucleation score worked out at 1.12 ± 0.66.
As to NEGEVIAELIIFVNPWVTI, the amyloid nucleation score was -0.599 ± 0.43.
NEGIMPLVNHSKQEEPGVYR showed an amyloid nucleation score of 0.753 ± 0.57.
Take NEHAENDVTFQGNEDICVVM: the amyloid nucleation score was -0.419 ± 0.34.
For NESEFLFSKAHRMVVIP, the amyloid nucleation score entry is “inactive”.
For NEWKSLSINEMRGSMTINNS the value was 1.44 ± 0.12; for NFELEHLEICSDVCFGCAAE, 1.12 ± 0.65.
For NFFQWPSVETWTASIN the value was -0.144 ± 0.41; for NFINVVVWQEGYLRVIHTSV, 0.537 ± 1.1.
For NFKNKIMGALS the value was -0.548 ± 2.1; for NFKVYPSGCKEECAYVLLSL, 3.87 ± 0.079.
For the substance NFRKL, the amyloid nucleation score result is “inactive”.
For NFRWILSSAMDAIFPYVAFV the value was 1.52 ± 0.78; for NGCFIAFLTMFTYFTCTRVS, -0.76 ± 0.8.
For NGEIVYASWTCDPSIGRRGK the value was 0.207 ± 0.97; for NGGYYAMGVGFLYVFALCHD, 2.05 ± 0.27.
For NGKEDKTCLWSVQPYCKSCE the value was -0.475 ± 1.2.
NGLFAYVRM gave an amyloid nucleation score of 0.505 ± 0.27.
For NGLSRYKKDLGLVDWYFGQM the value was 0.744 ± 0.37; for NGWPWGERSALRMG, -0.573 ± 0.95; for NGWTFYCSCSWCGI, 8.306 ± 0.049.
For NGYWLSFWTSRY the value was 1.63 ± 0.46; for NHFLRSNNKYLSWGKTYIAP, -0.846 ± 2.4; for NHRNVMRQIDASVMGVYNTW, 0.766 ± 1.2.
For NHSNTCEWRSCRP the value was 0.551 ± 0.61; for NIANSWYW, -0.537 ± 1.9.
NIGNVMRSCSKVYSLSLKQL gave an amyloid nucleation score of 0.585 ± 0.31.
For NIHSEAPISPSMPGLREVTA the value was 0.219 ± 0.32; for NIKDRILYNVYMRGMCIYCL, 6.137 ± 0.053.
On to NISSNRCVNNVAPSDSSTYF, for which the amyloid nucleation score was -0.091 ± 0.69.
The substance NIYVGSYTLYTTN displayed an amyloid nucleation score of 5.386 ± 0.047.
For NKLCTR the value was “inactive”.
For NLECFTCFFLYTIDMNLKP the value was 4.94 ± 0.053; for NLHFVGTCHTFSSAYNRRET, -0.95 ± 2.7.
For NLICDLGNSVTMSVRDDQTV the value was -0.013 ± 0.36; for NLILDQVNTYSLCSTIFI, 7.291 ± 0.058.
NLLYTY yielded an amyloid nucleation score of 1 ± 0.53.
For the substance NLRLAWRGQTVCRETHKRPF, the amyloid nucleation score came out at 2.37 ± 0.13.
For NLRQVCNSAFVVGSVIFFWV the value was -0.318 ± 0.69; for NLTGGCLGVRWDMVECAWYY, 3.77 ± 0.068.
For NLTRSVHVMRQVIVQHFIGN the value was 0.424 ± 0.72; for NLTSVPYMPLECDYHARSYF, -1.55 ± 1.2.
For NMALCTCGLNPGNL the value was 0.003 ± 0.46; for NMFMIV, -1.05 ± 1.3.
On to NMIESIVDISTPFIHGMIND, for which the amyloid nucleation score is 0.295 ± 1.1.
Substance NMSGMVLGLVLTATWSFMSV displayed an amyloid nucleation score of 0.588 ± 0.45.
For NMTPFGYIHFTL the value was 0.644 ± 1; for NMTSYSIYGELE, -0.341 ± 0.21; for NNCSWIIGHRVVPTSRGE, -0.329 ± 0.45.
The substance NPDDVFMSAVWGYF came in with an amyloid nucleation score of -0.127 ± 0.19.
NPKSFNGCVFRLGGVPYFVS yielded an amyloid nucleation score of 0.076 ± 0.36.
For NPLHTMFTLYEIRQWRLF the value was -0.048 ± 0.3; for NPMLLPSEPSS, -0.181 ± 0.42; for NPPGGDIYEC, -0.721 ± 0.53.
For NPPVWPSTFQE the value was -0.159 ± 0.58; for NPRLCPKDMRGRPQEKRVPQ, -0.345 ± 1.7; for NPVPGARKNRVHAGSKSDTG, 0.075 ± 0.68.
Take NREVYKMLLGCFSIHISCNR: the amyloid nucleation score result is “inactive”.
Turning to NRFTHHSIR, the amyloid nucleation score amounted to 1.19 ± 0.84.
Substance NRIFCLYSFCCFHENWVGLY yielded an amyloid nucleation score of 4.96 ± 0.095.
For NRIMY the value was -0.09 ± 0.2; for NRIRRWWTFRVLGDSQKCVD, 0.411 ± 1; for NRNERVTHSSQFSIGFEERM, 1.14 ± 0.57.
In turn, NRQKFSDVSYCTMTMFRVAH came in with an amyloid nucleation score of -0.61 ± 1.7.
For NRRMFV the value was -1.13 ± 0.48.
Regarding NRRSSKLIN, the amyloid nucleation score result was “inactive”.
NRTWGYLSCALRNPSMTT displayed an amyloid nucleation score of -0.305 ± 0.47.
NRVLLSEAKSQFIG returned an amyloid nucleation score of 0.366 ± 0.59.
For NSCNDRFHLAMRQGF the value was 0.067 ± 0.84.
NSDKLPRCHLSLSYV came in with an amyloid nucleation score of 0.994 ± 0.28.
On to NSELFIGGDYLDIDST, for which the amyloid nucleation score came out at 0.591 ± 0.43.
Substance NSFKCFNDRNEVALMITHRE had an amyloid nucleation score of -0.526 ± 0.77.
The substance NSFSDSHRWKPGRRNRCKRG showed an amyloid nucleation score of 1.07 ± 0.97.
On to NSIFLLSYLKLIFAVYA, for which the amyloid nucleation score result is “inactive”.
For NSILVNVYDKTFRVGLRGRN the value was “inactive”.
For NSIPLDLSNTLLLCARC the value was -0.02 ± 0.49; for NSNMGCSVI, -0.596 ± 1; for NSRKSAGHPSLESGSLLCYA, -0.041 ± 0.5.
For NSRMRFILGTFY the value was 1.63 ± 0.41; for NSSMVG, -1.16 ± 1.7.
Regarding NSVAGSYGVWQWGDSRSLPP, the amyloid nucleation score turned out to be 0.262 ± 0.43.
For NSYKNYCVLCECRC the value was 4.21 ± 0.07; for NSYRFSLFQ, 1.32 ± 0.46.
Turning to NSYTCNMFDLVFCAYTIASI, the amyloid nucleation score worked out at 4.95 ± 0.057.
For NSYVLVNCALLRLGRINVFY the value was 7.56 ± 0.077; for NTLYVGWCMGFV, -0.354 ± 0.3; for NTMPSGWNRYTVYG, -0.634 ± 0.44.
For NTQRTLIFSPMFVSRRLNLA the value was 2.64 ± 0.16; for NTRAPFLKHLNYFAYTTFII, 0.123 ± 0.22.
In turn, NTSVLLTVLVG showed an amyloid nucleation score of 0.822 ± 0.46.
NTVCSAMRW displayed an amyloid nucleation score of 4.14 ± 0.091.
The substance NTYGAGSLGITWQQVCLTYE returned an amyloid nucleation score of 0.767 ± 0.62.
For NTYVYNDKGVRNIWKKLVYT the value was “inactive”; for NVDSRFD, -1.1 ± 0.81.
Substance NVGGFQSLPEYNSYRMRAEQ returned an amyloid nucleation score of 0.26 ± 0.56.
Take NVLVQGFG: the amyloid nucleation score is -0.017 ± 0.66.
With NVMVTFFGCIRKWRSNWSQE, the amyloid nucleation score is -0.016 ± 0.48.
For NVPCRVLRFGHLSDIGIDCQ the value was 0.705 ± 0.9.
For NVPIPRAFRDNRTL the value was 0.577 ± 0.5.
On to NVQGSHSCSISCYIMPGRAM, for which the amyloid nucleation score worked out at 5.56 ± 0.077.
For NVRALILIKNCSPQMLRNEF the value was 5.07 ± 0.06.
For NVRDLSMISLGAEVWGRIAV the value was 0.619 ± 0.81.
For NWCVLALIN the value was 1.83 ± 0.43.
For NWHVGIIGWRCMGHTQKYVN, the amyloid nucleation score turned out to be 0.038 ± 0.22.
For NWIGS the value was 1.44 ± 0.41; for NWNSR, 0.197 ± 0.64.
For NWRQEYVFAY the value was -1.37 ± 2.4; for NWSFEWWTSIAMEQ, -0.222 ± 0.42.

(Values after the supplement of paper PMC12042874.)
